Laboratory results as given in US10947296B2, “Fusion protein Slit2D2(C386S)-HSA and use thereof in treatment of fibrotic diseases” (SUZHOU THINKING POWER BIOTECHNOLOGY CO., LTD., priority 2016, dated 2021).

Columns and labels:
Robo1 protein = molecular target: T1, Robo1 protein (Homo sapiens, UniProt Q9Y6N7); experiment: Affinity of the fusion protein to receptor Robo1 determined by SPR; format: binding; conditions: Robo1 bound to CM5 chip
T1 construct: purchased ORIGEN TP327713
Protocol: The affinity constant between the protein and Robo1 protein was detected by SPR (Surface Plasmon resonance BIAcore 200) method. The Robo1 protein (ORIGEN, Art. No.: TP327713) was bound to a CM5 chip, and the interaction between the fusion protein Slit2D2(C386S)-HSA (prepared in Example 1), Slit2D2-HSA (as disclosed in Patent Application PCT/CN2015/092079), and the receptor protein Robo1 were analyzed. Kinetic measurements were performed according to the method referred by Canziani et al. (2004, Anal. Biochem. 325: 301-307). Furthermore, the affinity of the Slit2N protein (Slit2N is a protein having a molecular weight of about 120 kDa at the N-terminus of the Slit2 protein) to Robo1 protein was also determined by the same method.

pulmonary fibrosis model = experiment: Efficacy on bleomycin-induced pulmonary fibrosis model; format: in vivo; parameters: body weight of the animals (Mean ± SEM) / Weight of the left lung (Mean ± SEM) / Volume of the left lung (Mean ± SEM): unit not given here; conditions: for Volume of the left lung (Mean ± SEM) / Weight of the left lung (Mean ± SEM): after formalin perfusion, day 14
Protocol: Animals were anesthetized by inhaling isoflurane. After confirmation of anesthesia, the animals were sterilized, then the neck skin was cut, the muscles were bluntly separated to expose the trachea, and bleomycin (dosage: 3 mg/kg, volume: 1.0 mL/kg) was directly injected between the tracheal rings. After the operation, the animals were placed in a 37° C. electric blanket to keep warm until the animals were completely awakened. After confirming that they were able to eat and drink freely, the animals were returned to the cage for normal feeding.
In this experiment, there were four groups, i.e., model group (experimental group-1, […]), PFD group (experimental group-2, n=6), Slit2D2(C386S)-HSA-1 mg/kg (experimental group-3, n=6), and Slit2D2(C386S)-HSA-5 mg/kg (experimental group-4, n=6).
In this experiment, the positive control drug (PFD) was given to rats by gavage twice a day, which was started on the day of modeling, and administered continuously for 14 days. The test compound (Slit2D2(C386S)-HSA) was given intravenously once every other day, which was started on the day of modeling, and a total of seven doses were administered (as shown in table 6).
Physiological observation of the experimental animals: changes in body weight of the animals were measured (body weight was measured once a day before administration); and the death rate of animals during the test period was monitored.
Animals were euthanized 24 hours after the last administration on the 14th day of modeling. After confirming the death of the animals, the left lung was fixed by intrapulmonary infusion of formalin, and the volume and weight of the left lung after perfusion were measured for relevant examination of the pulmonary pathology.
General pathological examination: After the perfusion with an equal amount of formalin in the left lung, the wet weight of left lung after perfusion was weighed/recorded with a micro-balance; and the volume of left lung after perfusion was measured and recorded using a micro-measuring cup.
Pathological examination of lung tissue: The whole lung was dehydrated. Lung paraffin sections were made with paraffin blocks. […] HE staining and Masson Trichrome staining were performed according to pathological staining SOP, and whole section scanning was performed using a Digital Pathscope slice scanner. Pathological analysis and scoring of changes in damage and inflammation of terminal bronchioles and accompanying small pulmonary artery at the periphery of the lesions (as shown in Tables 7 and 8 and FIG. 7) were performed using the HE-stained sections. Lesion area calculation, lesion pathology analysis and scoring were performed with the Masson Trichrome-stained sections (as shown in Table 9 and FIG. 8).
The mean±sd or mean±sem was calculated using the graphpad prism software, and the significant difference test was performed using t-test, one-way ANOVA and two-way ANOVA test. A significant difference between the two groups was considered at p<0.05.

T1 sequence (Q9Y6N7 26-1651): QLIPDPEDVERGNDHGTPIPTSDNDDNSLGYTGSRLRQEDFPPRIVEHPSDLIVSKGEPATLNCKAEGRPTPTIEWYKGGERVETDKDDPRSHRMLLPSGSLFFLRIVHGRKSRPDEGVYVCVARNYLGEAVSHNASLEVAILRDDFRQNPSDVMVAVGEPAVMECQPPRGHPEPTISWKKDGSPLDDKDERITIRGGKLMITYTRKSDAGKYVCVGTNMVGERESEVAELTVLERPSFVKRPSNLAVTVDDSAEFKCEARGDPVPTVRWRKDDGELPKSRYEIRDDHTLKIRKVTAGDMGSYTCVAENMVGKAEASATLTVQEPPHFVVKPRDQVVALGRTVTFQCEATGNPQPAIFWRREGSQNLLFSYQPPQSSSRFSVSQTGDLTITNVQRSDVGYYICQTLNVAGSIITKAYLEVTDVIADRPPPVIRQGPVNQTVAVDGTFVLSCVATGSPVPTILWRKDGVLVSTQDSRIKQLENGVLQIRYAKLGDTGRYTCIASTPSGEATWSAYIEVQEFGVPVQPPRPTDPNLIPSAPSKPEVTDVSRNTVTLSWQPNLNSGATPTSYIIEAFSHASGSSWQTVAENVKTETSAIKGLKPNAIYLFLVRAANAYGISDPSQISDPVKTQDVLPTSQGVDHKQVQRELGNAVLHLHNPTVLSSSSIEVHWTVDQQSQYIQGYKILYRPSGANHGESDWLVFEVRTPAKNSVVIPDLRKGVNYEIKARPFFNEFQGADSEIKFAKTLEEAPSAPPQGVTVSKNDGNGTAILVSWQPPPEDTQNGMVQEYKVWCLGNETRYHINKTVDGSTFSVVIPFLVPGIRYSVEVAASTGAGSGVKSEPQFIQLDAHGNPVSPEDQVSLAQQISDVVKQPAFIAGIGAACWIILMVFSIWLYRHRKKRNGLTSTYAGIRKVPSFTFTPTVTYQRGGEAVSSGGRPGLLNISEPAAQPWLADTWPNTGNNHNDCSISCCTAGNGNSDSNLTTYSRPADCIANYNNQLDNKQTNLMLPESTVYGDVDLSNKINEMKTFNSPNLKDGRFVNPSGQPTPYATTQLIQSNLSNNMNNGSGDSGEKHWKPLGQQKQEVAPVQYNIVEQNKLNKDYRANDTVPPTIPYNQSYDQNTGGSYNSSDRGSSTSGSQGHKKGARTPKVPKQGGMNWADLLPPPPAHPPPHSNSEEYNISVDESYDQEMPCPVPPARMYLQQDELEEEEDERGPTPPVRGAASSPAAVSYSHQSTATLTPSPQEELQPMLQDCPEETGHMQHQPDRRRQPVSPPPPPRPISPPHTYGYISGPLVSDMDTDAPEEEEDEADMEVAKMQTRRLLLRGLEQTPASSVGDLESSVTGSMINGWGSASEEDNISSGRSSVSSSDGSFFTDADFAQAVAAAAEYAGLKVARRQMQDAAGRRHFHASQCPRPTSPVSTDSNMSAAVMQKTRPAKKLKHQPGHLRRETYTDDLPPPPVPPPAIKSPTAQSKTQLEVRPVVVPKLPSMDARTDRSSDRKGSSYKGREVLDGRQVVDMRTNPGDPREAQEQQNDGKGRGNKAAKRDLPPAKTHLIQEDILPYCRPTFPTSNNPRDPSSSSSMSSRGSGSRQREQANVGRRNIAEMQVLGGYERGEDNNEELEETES

Substance: Slit2D2(C386S)-HSA: Fusion protein of the Slit2 D2 domain with C386S mutation linked to human serum albumin; amino acid sequence SEQ ID NO: 3
- Ka (Robo1 protein): 864700 M⁻¹ s⁻¹
- inhibiting pulmonary fibrosis, compared with positive compound (PFD) (pulmonary fibrosis model; 5 mg/kg dose group, iv Q2D): superior to the positive compound (PFD)
- Volume of the left lung (Mean ± SEM) (pulmonary fibrosis model; 1mpk (BID)): 1.27 ± 0.02
- Weight of the left lung (Mean ± SEM) (pulmonary fibrosis model; 1mpk (BID)): 1.20 ± 0.03
- body weight of the animals (Mean ± SEM) (pulmonary fibrosis model; 1mpk Q2D iv, Day 1): 273.8 ± 3.1
- body weight of the animals (Mean ± SEM) (pulmonary fibrosis model; 1mpk Q2D iv, Day 3): 255.2 ± 3.2
- body weight of the animals (Mean ± SEM) (pulmonary fibrosis model; 1mpk Q2D iv, Day 5): 262.8 ± 4.7
- body weight of the animals (Mean ± SEM) (pulmonary fibrosis model; 1mpk Q2D iv, Day 7): 276.7 ± 5.4
- body weight of the animals (Mean ± SEM) (pulmonary fibrosis model; 1mpk Q2D iv, Day 9): 290.7 ± 6.3
- body weight of the animals (Mean ± SEM) (pulmonary fibrosis model; 1mpk Q2D iv, Day 11): 302.7 ± 6.9
- body weight of the animals (Mean ± SEM) (pulmonary fibrosis model; 1mpk Q2D iv, Day 13): 310.3 ± 7.8
- Volume of the left lung (Mean ± SEM) (pulmonary fibrosis model; 5mpk (BID)): 1.32 ± 0.03
- Weight of the left lung (Mean ± SEM) (pulmonary fibrosis model; 5mpk (BID)): 1.31 ± 0.07
- body weight of the animals (Mean ± SEM) (pulmonary fibrosis model; 5mpk Q2D iv, Day 1): 272.7 ± 1.8
- body weight of the animals (Mean ± SEM) (pulmonary fibrosis model; 5mpk Q2D iv, Day 3): 251.8 ± 2.3
- body weight of the animals (Mean ± SEM) (pulmonary fibrosis model; 5mpk Q2D iv, Day 5): 245.0 ± 5.0
- body weight of the animals (Mean ± SEM) (pulmonary fibrosis model; 5mpk Q2D iv, Day 7): 258.3 ± 4.4
- body weight of the animals (Mean ± SEM) (pulmonary fibrosis model; 5mpk Q2D iv, Day 9): 272.5 ± 5.0
- body weight of the animals (Mean ± SEM) (pulmonary fibrosis model; 5mpk Q2D iv, Day 11): 284.3 ± 5.9
- body weight of the animals (Mean ± SEM) (pulmonary fibrosis model; 5mpk Q2D iv, Day 13): 292.2 ± 5.6
- inhibition on the progression of pulmonary fibrosis (pulmonary fibrosis model; intravenous, every other day for 2 weeks, 1 and 5 mg/kg): significant inhibition on the progression of pulmonary fibrosis, with a dose-dependent trend
